Source: publication PMC3896397

Molecular target: Recombinant Human VEGF-A165 (human)
Assay: ELISA; VEGF 165 (0.5 ug) on 96-well plates; serial dilutions (0.05 to 10 uM) of Flag-tagged HSPB1 wild type or C-terminal HSPB1 in PBS plus 1% BSA, 37°C, 2 hours; detected with anti-flag monoclonal antibody; Kd by Scatchard analysis

Substance	Kd
Flag-tagged secretory wild-type HSPB1 (from UniProt P04792 1-205) (natural protein)	10.8 µM
C-terminal HSPB1 fragment, secretory HSPB1 (59-203) (from UniProt P04792 59-203) (domain or fragment)	0.78 µM
